We go through 3 molecules from PMC6028238.

Where only a bound is given, the exact number is not on record here.

The target in test [1] is protein H on the surface of S. pyogenes AP1 bacteria (Streptococcus pyogenes (endogenous in strain AP1)). Description: electron microscopy with gold-labelled protein.
For test [2], the target named is human C4b-binding protein (C4BP), purified from plasma (human) (UniProt P04003). Description: negative-stain electron microscopy.
In test [3] the target is protein H on the surface of S. pyogenes AP1 bacteria (Streptococcus pyogenes (endogenous in strain AP1)). Description: flow cytometry on cells. (Flow cytometry measures light scatter and fluorescence of single cells or particles in a stream.)

In test [1], “human C4b-binding protein (C4BP), purified from plasma (from UniProt P04003 49-597; P20851 18-252) (complex)” registered a gold particles of C4BP bound to the surface, with IgG (gold particles/mm^2) of 917 and a gold particles of C4BP bound to the surface, without IgG (gold particles/mm^2) of 82.
With “protein H (Streptococcus pyogenes), recombinant (natural protein)”, in test [2], the percent of C4BP molecules complexed with protein H, with IgG was determined as 83% and the percent of C4BP molecules complexed with protein H, without IgG stood at 7%.

B1: human C4BP in serum of human C4BP transgenic mice (natural protein)
chain: NCGPPPTLSFAAPMDITLTETRFKTGTTLKYTCLPGYVRSHSTQTLTCNSDGEWVYNTFCIYKRCRHPGELRNGQVEIKTDLSFGSQIEFSCSEGFFLIGSTTSRCEVQDRGVGWSHPLPQCEIVKCKPPPDIRNGRHSGEENFYAYGFSVTYSCDPRFSLLGHASISCTVENETIGVWRPSPPTCEKITCRKPDVSHGEMVSGFGPIYNYKDTIVFKCQKGFVLRGSSVIHCDADSKWNPSPPACEPNSCINLPDIPHASWETYPRPTKEDVYVVGTVLRYRCHPGYKPTTDEPTTVICQKNLRWTPYQGCEALCCPEPKLNNGEITQHRKSRPANHCVYFYGDEISFSCHETSRFSAICQGDGTWSPRTPSCGDICNFPPKIAHGHYKQSSSYSFFKEEIIYECDKGYILVGQAKLSCSYSHWSAPAPQCKALCRKPELVNGRLSVDKDQYVEPENVTIQCDSGYGVVGPQSITCSGNRTWYPEVPKCEWETPEGCEQVLTGKRLMQCLPNPEDVKMALEVYKLSLEIEQLELQRDSARQSTLDKEL
Take B1: in test [3], the C4BP binding without IgG at 30 °C, as percent of the binding with IVIG amounted to 40%; the C4BP binding without IgG at 39 °C, as percent of the binding with IVIG was under 10%; the fold increase of binding with 1 mg/ml IVIG against no IVIG came to 2 fold.
